Experimental data: the DeepSol protein solubility set

Experiment: soluble on expression in E. coli; label from the status in PepcDB or PDB records

Sequence	soluble on expression in E. coli
MAVEDEGLRVFQSVKIKIGEAKNLPSYPGPSKMRDCYCTVNLDQEEVFRTKIVEKSLCPFYGEDFYCEIPRSFRHLSFYIFDRDVFRRDSIIGKVAIQKEDLQKYHNRDTWFQLQHVDADSEVQGKVHLELRLSEVITDTGVVCHKLATRIVECQGLPIVNGQCDPYATVTLAGPFRSEAKKTKVKRKTNNPQFDEVFYFEVTRPCSYSKKSHFDFEEEDVDKLEIRVDLWNASNLKFGDEFLGELRIPLKVLRQSSSYEAWYFLQPRDNGSKSLKPDDLGSLRLNVVYTEDHVFSSDYYSPLRDLLLKSADVEPVSASAAHILGEVCREKQEAAVPLVRLFLHYGRVVPFISAIASAEVKRTQDPNTIFRGNSLASKCIDETMKLAGMHYLHVTLKPAIEEICQSHKPCEIDPVKLKDGENLENNMENLRQYVDRVFHAITESGVSCPTVMCDIFFSLREAAAKRFQDDPDVRYTAVSSFIFLRFFAPAILSPNLFQLTPHHTDPQTSRTLTLISKTVQTLGSLSKSKSASFKESYMATFYEFFNEQKYADAVKNFLDLISSSGRRDPKSVEQPIVLKEGFMIKRAQGRKRFGMKNFKKRWFRLTNHEFTYHKSKGDQPLYSIPIENILAVEKLEEESFKMKNMFQVIQPERALYIQANNCVEAKDWIDILTKVSQCNQKRLTVYHPSAYLSGHWLCCRAPSDSAPGCSPCTGGLPANIQLDIDGDRETERIYSLFNLYMSKLEKMQEACGSKSVYDGPEQEEYSTFVIDDPQETYKTLKQVIAGVGALEQEHAQYKRDKFKKTKYGSQEHPIGDKSFQNYIRQQSETSTHSI	soluble
MAVKDNYCVIMGGGIGSRFWPFSRESHPKQFLDFFGTGRSLLQMTYDRFARFIPRENILVVTNELYVDKVREQLPEIEPDQILREPTRRNTAPCIAYASYHIYARNPKANIIVAPSDHLILREDEFVRAASEALEFVADHEHLVTLGIRPSRPETGYGYIQMAEEKTGDFIRVKTFTEKPNAEMASIFLASGEFLWNSGMFVWNVESILAAFRKHLPEVTSSLENGLAHFNTPEERRFIDQAFPYCPSISIDFGVMEKADNVLVMPVDFGWADLGTWGSLYELAQKDDAGNASLKTRTLFYEAERNIVTTDNPQKLVVVQGINDCIVAESGNVLLICRAEEEQRIKHFVADAALKYDKEYN	soluble
MAVNQDTLYVKGDRNVEVTKREVTLGDLVSMECSNRVILPHLKTMKVLKIPENGEKRYVISILKIIACIHEKYPGLEVQNLGETDLIVTYEMQKTPSK	soluble
MAVREYQKKRRRERIFRAAMELFRNRGFQETTATEIAKAAHVSRGTFFNYYPYKEAVLLDYGSQLLAGLREEVRRLLAQGREPVEVLRHLFRVLAEGTAREKDLLLPMFYELLNPDPVRARAAFEALPLGDLIAEILKPLREQGVLRQDFSLERMGRTLADLYFLSALRWAAYTPGRDLAEELEKNLRLLLEGMLVREAPAPGGL	not soluble
MAVSFKVKERKVMINGQPAKIRYAQTLKTGDMDLSEICDLTSKISAVSEGDVRSIINTVTGLVITGLKQGRAISLGELGRFRISLSSKAAKEGEEFTVENIRRARVLFLPGGDIRRACRQIRLKGINMLRPGEQQGGTPSVPDSPEGGGEQGSGGGGL	not soluble
MAVYTDITEDELRNFLTQYDVGSLTSYKGIAEGVENSNFLLHTTKDPLILTLYEKRVEKNDLPFFLGLMQHLAAKGLSCPLPLPRKDGELLGELSGRPAALISFLEGMWLRKPEAKHCREVGKALAAMHLASEGFEIKRPNALSVDGWKVLWDKSEERADEVEKGLREEIRPEIDYLAAHWPKDLPAGVIHADLFQDNVFFLGDELSGLIDFYFACNDLLAYDVSICLNAWCFEKDGAYNVTKGKALLEGYQSVRPLSEAELEALPLLSRGSALRFFLTRLYDWLTTPAGALVVKKDPLEYLRKLRFHRTIANVAEYGLAGE	soluble
MAWAPPMAKRRSAPATQAAARTPGWTLGGLATILKGFSGQVQFVPEDYPVWLNRVLAEAQTGRGTVGVLGGLHGDFPPLVSRGLLEPLDGLYARLQDRGFPQAFVELGRMGTPNQQYLPWMQATYVMVARKEALKYLPPGADLNALTYEDLKNWAKAIQEATGQRRLGFPAGPGGLIHRFLQGYLYPSYTGSQVRRFKSPEAEAMWRDFRELWRYVNPRSTAYEFMQEPLLSGEVWIAWDHTARLKDALVQRPQDFVAFPAPAGPKGRGFMPVVAGLAIPKTAPDKRAAEALVDYLTRPEVQLLTLKEVGFFPVVRARYGEDLPEGIRLLAEAVSAQSSAKDALPSLLPVGLGDKGGEFNKVYRDAFTRIVLRGEEIRRALDLEAQNLARILRETGAPCWPPDAPSTGACPVE	soluble
MAYATVEDMVARFGELEVLQLTDRNNEGLIDREVAQTALVDATAEIDAYLGRFRRPFEDLPPILVRLCCDIARYRLTAAQGVLITDEIRNRYKIDVLDLLRAMAKGEVQLGVDDSGEEVAAGEDGIVFVNGKNKVFGRDH	not soluble
MAYQLYRNTTLGNSLQESLDELIQSQQITPQLALQVLLQFDKAINSALAQRVRNRVNFRVRMSSCIWKSVLLTLRAYVDLTHHSKIWLVWFGNLFYNRCAKFIHSMCFRIAFRF	not soluble
MCESDKLHDEINVIDIKIYPNRFLKPKTTELLLNKICGLEGYVRFLIHGPSLPKKVFYGPGKGHDVNHGDRKSILVNGNGIDLKVMVGEIIITVELDKFNDFMNQLEDILTETLSVEYSLLVGIFTRTTSTISDYLKYGIGFENLIDKRYIGLIDSRARSSESISIIKLEHHHHHH	not soluble
MCFIMSKRNTQLRRHTIVKLVNEQGEVSVEALSSQFETSEVTIRKDLASLEKNGQLLRRYGGAIALPKEVMHDELNEKVSVRKISLAKAAAKLIRDHNRIVIDSGSTTAALIQQLNDKRGLVVMTNSLHVANALNELENEPTLLMTGGTWDTHSESFQGKVAESVLRSYDFDQLFIGADGIDLDRGTTTFNELVGLSKVMAEVSREVIVMIESDKVGRKIPNLELSWDNIDVLVTDHELSDEFAKQIESHQVRVIRATVK	not soluble
MCHNGRMESLSLSHHFLIAMPGMGDPLFAKSLVYLCEHGEHGAMGLIINKPSGIAMAQLFDQIDLPLDDEDTRTGLVYFGGPVQPDRGFVLHQPAGNWQSSLMVTDDIALTTSKDVLVAVSEGKKPEQLLISLGYAGWSAGQLEKEIADNGWLTVPAEPSIVFDLPYEERYDAAMALLGFDPSLLSSDVGHALEHHHHHH	soluble
MCKSCYHCGEDVPANTDFKVEILGEVREMCCPGCETVAQTIVDSGLVSYYQYRTAPAEKADLVPEQLQALIHYDNEDVQSEFVRNHDN	not soluble
MCLARSISRRENYKPLKSKVMTKRNVGRPPKNERADHCCMVRFTDTEFARFLTLFEQSGLQNRAAFIKARVFNETFRVIKVDRSLLDYYQKLTTLYGQFRSVGVNYNQTVVALKSNFTEKKAFAMLTKLEKLTLELAIIGGEIVQLTRKFQEKWQHRQ	not soluble
MCLEDSDAGASNEYDSSPAAWNKEDFPWSGKVKDILQNVFKLEKFRPLQLETINVTMAGKEVFLVMPTGGGKSLCYQLPALCSDGFTLVICPLISLMEDQLMVLKQLGISATMLNASSSKEHVKWVHAEMVNKNSELKLIYVTPEKIAKSKMFMSRLEKAYEARRFTRIAVDEVHCCSQWGHDFRPDYKALGILKRQFPNASLIGLTATATNHVLTDAQKILCIEKCFTFTASFNRPNLYYEVRQKPSNTEDFIEDIVKLINGRYKGQSGIIYCFSQKDSEQVTVSLQNLGIHAGAYHANLEPEDKTTVHRKWSANEIQVVVATVAFGMGIDKPDVRFVIHHSMSKSMENYYQESGRAGRDDMKADCILYYGFGDIFRISSMVVMENVGQQKLYEMVSYCQNISKCRRVLMAQHFDEVWNSEACNKMCDNCCKDSAFERKNITEYCRDLIKILKQAEELNEKLTPLKLIDSWMGKGAAKLRVAGVVAPTLPREDLEKIIAHFLIQQYLKEDYSFTAYATISYLKIGPKANLLNNEAHAITMQVTKSTQNSFRAESSQTCHSEQGDKKMEAENLYFQSHHHHHHDYKDDDDK	soluble
MDAQGLRLITALKLCILATKKDGTPLYSDREQYIFSELYGLEGNEIQNMISLGDKLGLSRERIRQLKVKVFKKFGILRKRNIPAIIDIDNLLTNNHQINLDEVHNFACYLKKFQESHLSEYPIETLFDLAQLYFKQDYSIIKTWKREIKETSTIFPKKQNSQLTDITNKIIWFDHVKSWTLEEIHQITPHRNYDPNKKYLESEAGEFYSNKLQRNVFYESMLEKKFYKRLEKSHEVIYYVEQGITITYDRGKYTPDAIVFLDDGKGFVVEIKPLTEMANQSVQKKFKALLDFCEETGLGATLTDGRTDINHIFETIPNLAFEESILQSLKEFKKLTYGKVNELKNKYQVTTIHLLQCIIKNNLSYNSMPTFIWKTKKPIICDLLLSPENKMLLKGSTDIINNDKTLEHHHHHH	not soluble
MDAVRQSFQQLQNELRRDWCGIEAGGLASDYDILVVPSLSLDAHELQKISGVLFYEERLLFSLIRLRDPRTRVIYVTSEPLPPLVIDYYLQLLPGIPFSHARDRLLLLSTCDSSLKPLTQKILERPRLLERIRRALRPGSSFMTCFNSSPLERELSVALRVPLFAADPDLLEWGTKAGSRSLFAECGLPHPAGSPLMDSVEDLAAAAAELWQDQPQAQRFVIKLNQGFSGEGNALLDLRPIAQQSPDRVGLTAASQAIAQQFPVMRFQAAHETWQNFQGRITDLGAIAELFIEGEVKRSPSVQGCIHPSGQVEILSTHDQILGGPDGQIYLGCRFPADPAYRLQLQKWGEQIGEALAQRGALERFGVDFVAVNQGGDHWELQAIEINLRKGGTTHPFMTLKYLTNGYYDPQSGQFCSELGQPKYYVATDNLQSPRYRGVLPQDLMDIIAANQLHFDSSTKTGTVFHLMGCLSQYGKLGLTSIGNSPEQAQALYDEVVSVLDRETDPALEHHHHHH	soluble
MDCVVGRKNSAAVLLVLSERKTREEIILKLPDKTQESVIKAIDELERKYRRKFREKFKTITVDNGTEFLDYRGIEKSKTEPGKDRTKVYYAHPYSSWERGTNENINKLIRRFIPKGTDISKVSKAKIKSIERWINEYPRRMFGYRSAIEMAV	soluble
MDCWISTDYQSRTGNMAYPCTNRKTADSYYLNRSYQLDRIAVLLFLRQGTNAAMAGYWSSKILATSESNIYMNIILNMGEYSKSQ	not soluble
MDDDFVRALNKFNSKFSFRNKKNSLNEVLQKNKRNDKKEDINCNKLKNDLELQYIHSSNNKICQKFLTLPLNKKSDKLKDHSDKIILPVSILKTLEKGNYKNEVEFPYTFSIKNVQNNYITHACVLEFSSNEGIIFVSDNIKENLGLNKPQNSSIARVLITYCILSKCDFIKLDSLNNNINDIKYMKNLLENELSLNYSTLTLGDYIHINHLNFYISELEPDNAVSLINTDINVDICERNNMEGYKNVNILGDHKDIYEIIKIDIPINSSIQKGMNKYKFVLNNNTLDLLKKGKIELAIHLQSQMMLHSLNLFISLPPLDSVSEVLHHLYIDDYSTDEIIINREVIRNILKLHFACMIKEQPYNKNNDNHHANDKEDNVHNGTCNDHHEDDKIEKQNYDDSFLEYIFEHFFPHIIYIGVHNYMDTLVDYSICLKLNGEKNMSTKKDDSNNKCVNTSGFIHNNINLLKNININTQDIDNNNNDDTYITCDNCLKNILKYNIHMHKIHCLKNFTLCNICKKVLKKNEKDNHIHCDICNEGMHKNKKKTHELIWHTQIKCVCDKLLFRKQFIFHQNLFCPKKIIYCTFCNIFTQSNINIYNEEFILATFFDKYDNIKTNNSTVNKSIKYYYNMLFTYFHFFLKYIKNTEHEKYCGSKSINCTICKQIIYRNEYLLHLNTLHHFNKIESFKIINDNADLSQLMN	not soluble
